How the values were obtained:
[1] = biological target: Bone morphogenetic protein-2 (BMP-2) (Homo sapiens) (UniProt P12643); experiment: cell-based or functional assay
Chain of UniProt P12643 (P12643 283-396, form in doubt): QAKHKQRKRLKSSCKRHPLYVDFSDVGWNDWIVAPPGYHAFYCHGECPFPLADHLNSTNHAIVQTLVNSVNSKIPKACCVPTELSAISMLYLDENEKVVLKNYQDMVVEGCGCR

Substance	inhibition of BMP-2-induced ALP activity in C2C12 cells, noggin at 300 ng/mL, in the presence of heparin or HS5 (3 µg/mL) [1] [%]	inhibition of BMP-2-induced ALP activity in C2C12 cells, noggin at 300 ng/mL, no GAG [1] [%]	FXa activity (cleavage of chromogenic substrate S-2222), AT pre-incubated with HS5 (Antithrombin (AT))	FXa activity (cleavage of chromogenic substrate S-2222), AT pre-incubated with heparin (Antithrombin (AT))	FXa activity (cleavage of chromogenic substrate S-2222), AT pre-incubated with pHS or bHS (Antithrombin (AT))
noggin (ligand)	20	70	–	–	–
Factor Xa (FXa)	–	–	HS5 did not activate AT at any doses tested	heparin (a known anticoagulant) dose dependently activated AT resulting in the inhibition of FXa	In the presence of pHS or bHS, AT significantly reduced FXa activity, but only at 3 µg/mL

Reference: patent US20120087899A1
